Molecular target: hnRNP A1B (heterogenous ribonucleoprotein A1B), mouse (mouse (endogenous in C57BL6/N tissues))
Experiment: SDS-PAGE immunoblot of tissue lysates (SDS-resistant band); 15 ug of mouse tissue lysate (2 month-old mice, CNS and peripheral tissues) on 12.5% SDS-PAGE, blotted with anti-hnRNP A1B (custom) or anti-hnRNP A1 (4B10)

**Q.** How did the stoichiometry N turn out when “hnRNP A1B (heterogenous ribonucleoprotein A1B), mouse (natural protein)” was run?
**A.** The stoichiometry N was 2.
